Where “and” joins values, the source holds several entries; their conditions need not be identical. Equal values may be shown once.

The results in this text go back to doi:10.1101/2021.05.23.445342.

The target of experiment [1] is Calcineurin (human PPP3CA / PPP3R1 heterodimer) (human) (UniProt Q08209). In words: AUC.
Experiment [2] has as its target Biotin-Cys-AKAP5c_(ILVF->SA) (human) (UniProt P24588). Kind of experiment: SPR.
In experiment [3] the target is Biotin-Cys-AKAP5c (human) (UniProt P24588). Kind of experiment: SPR.

For “Calcineurin (human PPP3CA / PPP3R1 heterodimer) (from UniProt Q08209 1-521; P63098 1-170) (complex)”, in experiment [1], the Kd came to 100 µM and the percent heterotetramer came to 8%. For the same substance, the Kd of the one main surface site class in experiment [2] was 0.1 µM and 1 µM. In experiment [3], this substance showed a Kd of a further surface site class of 1 to 10 µM and a Kd of surface site class 1 (one or possibly two very similar sites) of 0.01 to 0.1 µM.
